Measured values as given in patent US20250230210A1 (PARTNER THERAPEUTICS, published 2025).

Assays:
human serum albumin [1] = target: T1, human serum albumin (human, UniProt P02768 25-609); experiment: BLI, Octet 384, VHH-Fc on AHC sensor, albumin in solution; VHH-Fc on AHC sensor, monomeric human albumin in solution; pH of Table 5 not stated
T1 construct: also called HSA; Human Albumin

human serum albumin [2] = target: T1, human serum albumin; experiment: BLI, VHH-Fc on sensor, human albumin in solution, pH 6.0, 30 C, 1:1 model
Experimental: (§1) To assess binding to albumin, the VHH were cloned onto a human IgG1 Fc and hinge for ease of purification and analysis. […] The VH-Fc constructs were loaded onto AHC sensors prior to exposure to the monomeric targets human, mouse or rhesus albumin in solution for association and then dissociation in buffer solution (Table 5 and FIGS. 5A-C).
(§2) To determine the dissociation constant, the binding reaction and dissociation were performed at the described pH. Data acquisition was performed at 30° C.
(§3) Data (time and response units) was analyzed using the ForteBio Data Analysis Software. The data was fit to a 1:1 binding model to calculate an association (Kon) and dissociation rate (Koff), and KD was calculated using the ratio kd/ka.

human serum albumin [3] = target: T1, human serum albumin; experiment: BLI, VHH-Fc on sensor, human albumin in solution, pH 5.5, 30 C, 1:1 model
Experimental: as §1, §2, §3

human serum albumin [4] = target: T1, human serum albumin; experiment: BLI, VHH-Fc on sensor, human albumin in solution, pH 7.0, 30 C, 1:1 model
Experimental: as §1, §2, §3

Rhesus albumin = target: T2, Rhesus albumin (rhesus monkey, UniProt Q28522 17-600); experiment: BLI, Octet 384, VHH-Fc on AHC sensor, albumin in solution
T2 construct: also called rhesus monkey albumin
Experimental: (§4) To assess binding, the VHH were cloned onto a human IgG1 Fc and hinge for ease of purification and analysis. […] The VHH-Fc constructs were loaded onto AHC sensors prior to exposure to the monomeric targets, human, mouse or rhesus albumin in solution to determine association and dissociation. In the case of the pH assessment, the binding reaction and dissociation buffer were at the described pH. Data acquisition was performed at 30° C.
as §1

Mouse Albumin = target: T3, Mouse Albumin (mouse, UniProt P07724 25-608); experiment: as above
T3 construct: also called murine albumin
Experimental: as §4, §1

human serum albumin [5] = target: T1, human serum albumin; experiment: as above
Experimental: as §4, §1

human serum albumin [6] = target: T1, human serum albumin; experiment: BLI, VHH-Fc on sensor, human albumin in solution, pH 6.5, 30 C, 1:1 model
Experimental: as §1, §2, §3

Kd (human serum albumin [1]): 0.159 µM
Kd (human serum albumin [2]): 0.00381 µM
Kd (human serum albumin [3]): 0.0123 µM
Kd (human serum albumin [4]): 0.00663 µM
Kd (Rhesus albumin): 0.0662 µM
Response (Rhesus albumin): 0.34
Kd (Mouse Albumin): 0.0104 µM
Response (Mouse Albumin): 0.507
Response (human serum albumin [5]): 0.178
Kd (human serum albumin [6]): 0.0082 µM
B1: VHH-Fc construct (anti-albumin VHH cloned onto a human IgG1 Fc and hinge) (Fc fusion)
chain: EVQLLESGGGLVQPGGSLRLSCAASGETLDYYAIGWFRQAPGKEREGVSCIASSGGSTNYADSVKGRFTISRDNSKNTVYLQMNSLKPEDTAVYYCAAAVLECRTVVRGYDYWGQGTQVTVSS
notes: also called VH-Fc constructs; not shown: human IgG1 hinge and Fc
